# Measured values from patent US20150258217A1, “Methods of Synthesizing and Using Peg-Like Fluorochromes” (THE GENERAL HOSPITAL CORPORATION, priority 2012, published 2015).
# What was measured:
# [1] = Probe volume determination by FPLC (Superdex 75, globular protein standards); format: physicochemical
# Description: Size (volume) was determined by FPLC using an ÄKTA Purifier 10 and Superdex™ 75 10/300 GL column (GE Healthcare Lifesciences) with a running buffer of 0.05 M sodium phosphate, 0.15 M NaCl (0.1% Tween, pH 7.2) and flow rate of 0.5 ml/min. The protein standards (Gel Filtration Calibration Kit LMW, code no. 28-4038-41, GE Healthcare) (0.3 mg/ml, mixture of Aprotinin, Ribonuclease A, Ovalbumin, and Conalbumin) and Blue Dextran 2000 were used. To obtain volumes, Mr (apparent molecular weight based on size exclusion retention) was plotted versus Kav. Kav=(Ve−Vo)/[…], Vt=total volume, Ve=elution volume, Vo=void volume.
# [2] = system: GFP expressing BT-20 breast carcinoma xenograft; assay: Tumor surface fluorescence after peritumoral (DMR) or IV injection; format: in vivo, mouse
# Description: Day 1, BT-20 cells were planted into 24-well plate at 750,000 cells/well in culture medium (EMEM with 10% FBS). Day 2, the old culture medium was replaced with new culture medium containing lenti-virus (1×10^8 particles/mL) and protamine sulphate (American Pharmaceutical Partners, Los Angelus, Calif.; 10 mg/mL; 1:500 of total volume of medium). Day 3, after 16 hours of transfection, medium was changed to the culture medium (EMEM with 10% FBS). 8 hours later, green cells could be seen via fluorescence microscope.
# All animal experiments were approved by the Institutional Review Committee of Massachusetts General Hospital. Female nude mice (25-30 g; 6-8 weeks old; nu/nu; Cox 7, Massachusetts General Hospital, Boston, Mass.) were anesthetized with isoflurane/O2. Tumor cell implantation was performed both sides around the shoulder. 200 μl of cell suspension containing 10^6 cells in Matrigel (BD) was injected subcutaneously. Tumor cells were inoculated for 7 to 10 days.
# The diffusion and molecular retention required of the DMR technique with a tumor bearing model were investigated. We peritumorally injected the RGD probe into an animal bearing two GFP expressing BT-20 breast carcinomas and monitored tumor GFP fluorescence and probe fluorescence as a function of time after injection. The non-integrin binding RAD probe was injected into a second animal also bearing two tumors. Overlaying purple probe fluorescence over green GFP yields white. […] Tumor surface fluorescence from both probes was quantified by the use of solution standards.
# In FIG. 8a), two animals bearing two tumors were PT injected with the RGD probe or RAD probe as indicated and surface fluorescence images were obtained. […] In FIG. 8b), quantitation of tumor surface fluorescence after injections of the RGD or RAD probes as above. Surface fluorescence was quantified through the use of standard solutions.
# To compare the DMR and intravenous (IV) methods, surface fluorescence images of tumor GFP and RGD probe fluorescence were obtained with skin removed, and overlays from the two signals obtained. With both DMR and IV administration, probe fluorescence extended beyond tumor GFP margins to a stromal area beyond the tumor. However, tumor fluorescence was far higher with DMR than IV injection, even though dose was far lower (50 pmoles/mouse by DMR versus 2000 pmoles/mouse by IV).
# In FIG. 9a), skin covering GFP-BT-20 tumor was removed. Shown are visible GFP fluorescence, probe (CyAL5.5) fluorescence, and the overlay of GFP and probe fluorescence plus an X-ray image. Green GFP plus purple CyAL5.5 fluorescence yielded a white overlaid image. In FIG. 9b), with DMR or IV, probe fluorescence included a stromal zone of integrin binding surrounding the tumor was seen. […]
# [3] = Quantum yield determination; format: physicochemical
# Description: Quantum yields were determined as described in Demas et al., “Measurement of photoluminescence quantum yields. Review”, Journal of Physical Chemistry 75, 991-1024 (1971), and Shao et al., “Facile Synthesis of Monofunctional Pentamethine Carbocyanine Fluorophores. Dyes and pigments: an international journal 90, 119-122 (2011). For IR-783 a reference quantum yield of 0.043 was used (see Li et al., “Synthesis and characterization of glucosamine-bound near-infrared probes for optical imaging”, Organic letters 8, 3623-3626, 2006); for fluorescein a reference quantum yield was […] (see Sjoback et al., “Absorption and florescence properties of fluorescein”, Spectrohimica Acta Part A 51, L7-L21, 1995). For Cy3 a reference quantum yield of 0.31 was used (Luminprobe Inc). For PN(783)'s, excitation was at 730 nm and emission spectra were recorded from 765 nm to 870 nm in PBS and maximum emission used. For PN(545)'s, excitation was at 515 nm and emission spectra were recorded from 538 nm to 700 nm in PBS and maximum emission used. For PN(497)'s, excitation was at 450 nm and emission spectra were recorded from 475 nm to 620 nm in PBS and maximum emission used. Absorbance of each probe was adjusted less than 0.1. Measurements were made in triplicate and are expressed as mean±SD.
# [4] = mouse, in vivo
# Description: At two hours post injection, agent is in the blood and interstitium. By 24 hours post injection, tumors are becoming apparent as agent is being cleared. At 48 hours, labeling is highly tumor selective. […] By surface fluorescence, as with SPECT, labeling is highly tumor selective at 48 hours. Biodistribution as organ radioactivity concentrations FIG. 26(c) and total organ radioactivity FIG. 26(d) were obtained by dissection and ^111In counting at 24 hours and 48 hours post injection. Even at 48 hours post injection some 7.5% of injected dose is in the blood, with less than 5% in liver, even though the diameter of PN(783)10.0 exceeds that of albumin (6.7 nm). Data are means and standard deviations. […] By 72 hours, some 17% of injected dose was retained, approximately half of which was still in the blood based on FIG. 26d.
# HT-29 tumor = format: in vivo, mouse
# Description: A Kodak FX multispectral imaging system was used (Carestream Molecular Imaging, Rochester, N.Y.). Excitation at multiple wavelengths (620, 650, 690, 710, 720, 730, 750 and 760 nm) with the emission at 830 nm was setup for IR-783 spectrum; Excitation at multiple wavelengths (420, 440, 460, 480, 510, 520, 530, and 540 nm) with the emission at 600 nm was setup for Cy3 spectrum; Excitation at multiple wavelengths (450, 470, 510, 520, 530, 540, 550, 570, and 590 nm) with the emission at 700 nm was setup for mCherry; with manufacturer's software to separate (unmix) the IR-783 spectrum, Cy3 spectrum, or mCherry spectrum from skin autofluorescence and chlorophyll fluorescence from food. X-ray images were taken after fluorescence images. Animals were anesthetized with 2% isoflurane with O2 flow (2 I/min) during imaging.
# Female nude mice (25-30 g; 6-8 weeks old; nu/nu) were anesthetized with 2% isoflurane/O2. HT-29 or mCherry-HT-29 cells were detached, pelleted and 200 μl of cell suspension containing 10^6 cells in Matrigel (BD Bioscience) was injected subcutaneously into right and left shoulders. Tumors were allowed to grow 5-7 days before experiments.
# The imaging was performed by Triumph II multimodality imaging system (Gamma Medica Ideas, LLC) comprising XSPECT with four CZT (Cadmium Zink Telluride) detectors and X-O CT with CMOS detector. SPECT data of the ^111In-labeled compound was acquired for 60 minutes using 5-pinhole collimators and processed with 3D-OSEM algorithm using 4 subsets and 5 iterations. 3-dimensional CT data was processed with modified Feldkamp software. […] Animals were under isoflurane anesthesia (1.5%) with O2 flow (1.5 l/min) and kept warm during the imaging with a heated animal bed.
# 150 μl of ^111In-labeled PN(783)10 (400 μCi, ˜2 nmole) were injected to tumor-bearing animals by tail vein (IV). 24 hours or 48 hours later, animals were sacrificed, and tumors, blood, liver, spleen, stomach, kidneys, small intestine, lung, heart, tail, fat, and muscle, were collected. Radioactivity was measured with Perkin Elmer, Wizard2 2480 gamma counter.
# [5] = system: HT-29, a human colon carcinoma cell line; assay: PN and peptide binding to cells (non-specific binding, FACS); format: cell-based; settings: HT-29 cells, 30 min at 37° C., FACS
# Description: HT-29, a human colon carcinoma cell line, was from the American Tissue Culture Collection and maintained according to their instructions. Cells were seeded on 24-well plates at 5×10^5 cells/well in culture medium (RPMI 1640 with 10% FBS) the day before the assay. The day of assay, medium was removed, wells rinsed twice with DPBS (+Ca, +Mg), and 100 μl of 2% FBS/DPBS (+Ca, +Mg) added. 100 μL of Nanoprobes (2 μM) in DPBS (+Ca, +Mg) was added to cells and incubated for 30 min at 37° C. (Probe concentrations were determined spectrophotometrically (783 nm, extinction coefficient of 314 471 cm^−1 M^−1 for IR-783; 497 nm, extinction coefficient of 68 000 cm^−1 M^−1 for Fluorescein; 545 nm, extinction coefficient of 150 000 cm^−1 M^−1 for Cy3). Cells were detached by Trypsin/EDTA and assayed for fluorescence by FACS (BD 7 laser LSR2 for nanoprobes with IR-783; BD 3 laser LSR2 for nanoprobes with Fluorescein or Cy3).
# [6] = PN and peptide size (volume, diameter) by FPLC gel filtration (Superdex 200, globular protein standards); format: physicochemical
# Description: DOTA-Lys-Cys(IR783)-NH2 is then dissolved in DMSO, with 2 equivalents of an NHS ester of PEG and 6 equivalents of DIPEA. The reaction was at room temperature for 5 days. Product was purified by reverse phase HPLC separation. Product molecular weight was by matrix-assisted laser desorption ionization time-of-flight mass spectrometry (MALDI-TOF MS), with product molecular volume by size exclusion FPLC using globular protein standards (GE Healthcare life science AKTApurifier 10).
# The mass spec of low molecular weights (MW) were obtained by MS-ESI Micromass (Waters) and high MW molecules were determined through MALDI-TOF analyses at the Tufts University Core Facility. RP-HPLC (Varian ProStar detector and delivery modules) employed an eluant A (0.1% TFA/water) and eluant B (0.1% TFA and 9.9% water in acetonitrile). Probe size (volume) was determined by FPLC using an ÄKTA Purifier 10 and Superdex™ 200 10/300GL column (GE Healthcare) with a running buffer of 0.05 M sodium phosphate, 0.15 M NaCl (0.1% Tween, pH 7.2) and flow rate of 0.8 ml/min. Standards (GE Healthcare) were Ferritin, Ribonuclease A, Carbonic Anhydrase, and Conalbumin and Blue Dextran 2000. To obtain probe volumes, Mr (apparent molecular weight based on size exclusion retention) was plotted versus Kav. Kav=(Ve−Vo)/(Vt−Vo), Vt=total volume, Ve=elution volume, Vo=void volume.
# The column was calibrated with globular protein standards, and globular protein equivalent molecular weights (in kDa) were obtained (Table 5, column 5). These were converted to PN diameters in nm using the relationship: Radius in nm=[…] where M is the molecular weight of a globular protein expressed in daltons (see Erickson, “Size and Shape of Protein Molecules at the Nanometer Level Determined by Sedimentation, Gel Filtration, and Electron Microscopy”, Biological Procedures Online 2009, 11(1): 32-50). PN's diameters ranged from 3.0 to 11.8 nm (see FIG. 23a). Using PEG's of 5 kDa and 30 kDa, selected for their low polydispersity, PN's were synthesized using IR-783, Cy3 and Fluorescein (see FIG. 22a) and their sizes determined (see FIGS. 23a, 23b, 23c). With the 5 kDa PEG and these three fluorochromes (see the magenta chromatograms in FIGS. 22a, 23b and 23c) PN diameters were 4.3 nm. With the 30 kDa PEG and these three fluorochromes (blue chromatograms, 23a, 23b, 23c), PN diameters were now 10.0 nm. For reference, the diameter of a 67 kDa albumin determined by this method was 5.4 nm.
# [7] = Circulating form of PN's (FPLC of serum after IV injection); format: in vivo, mouse; settings: nude mice, 20 nmoles
# Description: 20 nmoles of PN(783)4.3, PN(783)6.1, or PN(783)10.0 was injected (IV, tail vein) into nude mice (female; 25-30 g; 6-8 weeks old; nu/nu). At the indicated time, 50 μl of blood was collected with microhematocrit capillary tube (Fisher Scientific) from the tail, and transferred to Eppendorf microcentrifuge tube with anticoagulant (EDTA) coating (Fisher Scientific). Tubes were centrifuged (5000 rpm for 5 minutes), and the supernatant was injected to the FPLC, a ÄKTA Purifier 10 with Superdex™ 200 10/300GL column.
substance,measurement,setting,value
DOTA-Lys(CyAL5.5)-Lys(5 kDa PEG)- βAla -Lys(sPEG-RGD) [Compound 7a],Equiv. Vol.,"[1]; FPLC, globular protein equivalent volume",25 kDa
same,Molecular Volume,"[1]; Table 4, DMR probes",20-30 kDa
same,tumor retention of probe fluorescence after peritumoral injection,"[2]; BT-20 tumors, 24 hours post injection",retained by the tumor
same,Tumor fluorescence,"[2]; DMR, 50 pmoles/mouse",15.0 au
same,Tumor fluorescence,"[2]; IV, 2000 pmoles/mouse",1.5 au
same,Quantum Yield,"[3]; Table 4, DMR probes",0.20
(^111In-DOTA)Lys(PEG30 kDa)-Cys(IR-783) [^111In-PN(783)10.0],Whole body radioactivity half-life,[4],7.8 h
same,"Whole body radioactivity, % of injected dose",[4],13.75±0.74%
same,^111In-PN(783)10 elimination half-life,[4],7.8 h
same,tumor concentration,"HT-29 tumor; HT29 tumor, 48 hours post injection, IV",7.28±0.93 % ID/gm
same,injected dose in the kidney,"HT-29 tumor; mouse, in vivo",0.44±0.02%
same,injected dose in the liver,"HT-29 tumor; mouse, in vivo",4.71±0.38%
(DOTA)Lys(PEG10K)-Cys(IR-783) [PN(783)6.1],Cell NSB (percent of cells with fluorescence higher than unstained cell),[5],14%
same,Molecular Volume FPLC,"[6]; Table 3B, dipeptides",100.7 kDa
same,Volume FPLC (diameter),"[6]; Table 5, converted from globular protein equivalent MW",6.1 nm
same,Volume FPLC,"[6]; Table 5, globular protein equivalent molecular weight",100.7 kDa
same,circulating form after injection (FPLC elution vs pre-injection sample),[7],identical for pre-injection samples and for sera from injected mice
same,Quantum Yield,"[3]; Table 3B, IR-783 dipeptides",0.17
same,Quant. Yield,"[3]; Table 5, in PBS",0.16
